From paper PMC12302606, “The SlDOF9‐SlSWEET17 Module: a Switch for Controlling Sugar Distribution Between Nematode Induced Galls and Roots in Tomato”

B1: TS1 (dsDNA)
DNA 1: AAAAAGTGATAAGAAAAAACATCCAAGCCCT
DNA 2: AGGGCTTGGATGTTTTTTCTTATCACTTTTT
B2: TS1m (dsDNA)
DNA 1: AACATGTGATAAGAAAAAACATCCAAGCCCT
DNA 2: AGGGCTTGGATGTTTTTTCTTATCACATGTT
B3: TS2 (dsDNA)
DNA 1: AGCCAGAAAAGAAAATACAATAATTCTCATT
DNA 2: AATGAGAATTATTGTATTTTCTTTTCTGGCT

Molecular target: SlDOF9-His (Solanum lycopersicum, UniProt A0A3Q7FC45 1-258)
Assay: EMSA (supershift); anti-His antibody; Biotin-labeled and unlabeled probes with purified protein and anti-His antibody, room temperature, 30 min; buffer from kit, salt and pH not stated
Settings: protein: recombinant, tags: C-terminal His, blunt

Chain of SlDOF9-His (A0A3Q7FC45 entry or part of it): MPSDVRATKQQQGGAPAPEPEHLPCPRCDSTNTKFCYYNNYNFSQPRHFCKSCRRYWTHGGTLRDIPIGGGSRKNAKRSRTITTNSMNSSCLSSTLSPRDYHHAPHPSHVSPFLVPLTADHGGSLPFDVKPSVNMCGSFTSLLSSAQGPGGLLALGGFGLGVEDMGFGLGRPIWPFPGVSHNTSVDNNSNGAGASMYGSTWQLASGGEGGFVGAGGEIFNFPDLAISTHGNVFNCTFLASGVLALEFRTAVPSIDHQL

| Binder | binding result (label: biotin (labeled probe)) | binding result |
| --- | --- | --- |
| B1 | binds | – |
| B2 | – | no binding |
| B3 | binds | – |
